Measured values reported in the supplement of paper PMC9112550, “Optimization of the antimicrobial peptide Bac7 by deep mutational scanning” (BMC Biology, 2022).

System: Escherichia coli TOP10
Test: shrunken log2 fold change of peptide-encoding DNA abundance (4.5 h post-induction vs induction); higher = less antimicrobial activity (less host growth inhibition)
Conditions: time post-induction: 4.5 h; library: site-saturation at positions 5, 18, 19, 20
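Further: peptides expressed intracellularly from a pBAD plasmid library in pooled LB shake-flask culture, induced with 0.3% L-arabinose, DNA abundance read by NGS, three biological replicates, DESeq2 with apeglm shrinkage.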

Sequence	shrunken log2 fold change
RRIRCRPPRLPRPRPRPINDPRP	-0.505
RRIRIRPPRLPRPRPRPECFPRP	0.042
RRIRVRPPRLPRPRPRPHWSPRP	-0.191
RRIRMRPPRLPRPRPRPVDGPRP	1.08
RRIRFRPPRLPRPRPRPHLYPRP	-0.355
RRIRTRPPRLPRPRPRPMEMPRP	-0.236
RRIRARPPRLPRPRPRPLHQPRP	0.147
RRIRGRPPRLPRPRPRPPWSPRP	0.76
RRIRHRPPRLPRPRPRPQSDPRP	0.0136
RRIRSRPPRLPRPRPRPNGNPRP	-0.384
RRIRARPPRLPRPRPRPVRGPRP	0.945
RRIRDRPPRLPRPRPRPQRCPRP	0.121
RRIRMRPPRLPRPRPRPSDKPRP	0.0839
RRIRFRPPRLPRPRPRPSPMPRP	1.17
RRIRIRPPRLPRPRPRPLSWPRP	-0.0609
RRIRCRPPRLPRPRPRPVKEPRP	-0.0734
RRIRNRPPRLPRPRPRPMPGPRP	0.0352
RRIRKRPPRLPRPRPRPPYMPRP	-0.209
RRIRNRPPRLPRPRPRPKFLPRP	0.0309
RRIRRRPPRLPRPRPRPFLWPRP	0.173
RRIRGRPPRLPRPRPRPYKKPRP	-0.186
RRIRPRPPRLPRPRPRPCSPPRP	0.0563
RRIRPRPPRLPRPRPRPAWFPRP	0.117
RRIRMRPPRLPRPRPRPVTLPRP	-0.393
RRIRERPPRLPRPRPRPDAEPRP	0.36

Sequence	shrunken log2 fold change
RRIRDRPPRLPRPRPRPLQRPRP	-0.00347
RRIRYRPPRLPRPRPRPKWGPRP	-0.297
RRIRDRPPRLPRPRPRPSQPPRP	-0.0206
RRIRQRPPRLPRPRPRPRRHPRP	-0.0734
RRIRWRPPRLPRPRPRPECQPRP	-0.0508
RRIRRRPPRLPRPRPRPSMKPRP	-0.434
RRIRERPPRLPRPRPRPFVIPRP	-0.478
RRIRLRPPRLPRPRPRPPRWPRP	0.408
RRIRARPPRLPRPRPRPKQNPRP	0.481
RRIRERPPRLPRPRPRPQMMPRP	-0.0543
RRIRQRPPRLPRPRPRPYVCPRP	-0.0671
RRIRYRPPRLPRPRPRPAGPPRP	-0.0366
RRIRGRPPRLPRPRPRPMHGPRP	0.36
RRIRYRPPRLPRPRPRPVWWPRP	0.113
RRIRMRPPRLPRPRPRPHSTPRP	0.126
RRIRMRPPRLPRPRPRPSCDPRP	0.444
RRIRCRPPRLPRPRPRPEWGPRP	0.163
RRIRLRPPRLPRPRPRPQRLPRP	0.239
RRIRERPPRLPRPRPRPEWMPRP	0.171
RRIRIRPPRLPRPRPRPITFPRP	-1.1
RRIRVRPPRLPRPRPRPWPPPRP	0.46
RRIRNRPPRLPRPRPRPSMMPRP	-0.589
RRIRQRPPRLPRPRPRPPMQPRP	-0.055
RRIRNRPPRLPRPRPRPVREPRP	0.249
RRIRMRPPRLPRPRPRPFWMPRP	0.154

Sequence	shrunken log2 fold change
RRIRKRPPRLPRPRPRPFLHPRP	-0.0903
RRIRFRPPRLPRPRPRPKPSPRP	0.462
RRIRYRPPRLPRPRPRPHSIPRP	-0.311
RRIRSRPPRLPRPRPRPSKQPRP	-0.225
RRIRNRPPRLPRPRPRPTVQPRP	-0.179
RRIRDRPPRLPRPRPRPHEVPRP	0.0253
RRIRTRPPRLPRPRPRPDTDPRP	-0.138
RRIRIRPPRLPRPRPRPHMHPRP	-1.05
RRIRVRPPRLPRPRPRPRLDPRP	0.238
RRIRYRPPRLPRPRPRPRDQPRP	-0.0852
RRIRMRPPRLPRPRPRPNDWPRP	0.435
RRIRYRPPRLPRPRPRPQQKPRP	0.0376
RRIRSRPPRLPRPRPRPQFNPRP	-0.498
RRIRMRPPRLPRPRPRPGKHPRP	4.3
RRIRSRPPRLPRPRPRPYAYPRP	-0.315
RRIRWRPPRLPRPRPRPASKPRP	0.294
RRIRFRPPRLPRPRPRPMIGPRP	0.0266
RRIRERPPRLPRPRPRPYITPRP	-1.07
RRIRKRPPRLPRPRPRPIYEPRP	-0.0432
RRIRERPPRLPRPRPRPKSLPRP	-0.515
RRIRIRPPRLPRPRPRPRHYPRP	-0.177
RRIRARPPRLPRPRPRPQLSPRP	0.329
RRIRFRPPRLPRPRPRPIDCPRP	-0.046
RRIRSRPPRLPRPRPRPAGIPRP	0.138
RRIRGRPPRLPRPRPRPNFLPRP	-0.0918

Sequence	shrunken log2 fold change
RRIRGRPPRLPRPRPRPPPNPRP	1.27
RRIRDRPPRLPRPRPRPLRAPRP	1.15
RRIRERPPRLPRPRPRPWMWPRP	0.0673
RRIRRRPPRLPRPRPRPEDQPRP	0.196
RRIRQRPPRLPRPRPRPVVCPRP	3.57
RRIRDRPPRLPRPRPRPRYQPRP	0.204
RRIRNRPPRLPRPRPRPDSEPRP	-0.0671
RRIRPRPPRLPRPRPRPLDAPRP	0.131
RRIRVRPPRLPRPRPRPMWMPRP	0.109
RRIRPRPPRLPRPRPRPGPKPRP	0.394
RRIRARPPRLPRPRPRPGEMPRP	0.228
RRIRTRPPRLPRPRPRPSMHPRP	-0.152
RRIRVRPPRLPRPRPRPYMYPRP	-0.588
RRIRDRPPRLPRPRPRPMFGPRP	0.12
RRIRYRPPRLPRPRPRPLYFPRP	-1.15
RRIRQRPPRLPRPRPRPWVNPRP	-0.215
RRIRIRPPRLPRPRPRPPSHPRP	-0.0543
RRIRCRPPRLPRPRPRPWIWPRP	-0.128
RRIRTRPPRLPRPRPRPWWHPRP	-0.279
RRIRFRPPRLPRPRPRPICSPRP	-0.0437
RRIRNRPPRLPRPRPRPWMWPRP	-0.0133
RRIRERPPRLPRPRPRPDMLPRP	-0.166
RRIRGRPPRLPRPRPRPSWWPRP	0.537
RRIRWRPPRLPRPRPRPIRYPRP	-0.242
RRIRMRPPRLPRPRPRPNLAPRP	0.337

Sequence	shrunken log2 fold change
RRIRLRPPRLPRPRPRPCPSPRP	-0.00306
RRIRFRPPRLPRPRPRPFGRPRP	-0.199
RRIRQRPPRLPRPRPRPIYRPRP	-0.0223
RRIRPRPPRLPRPRPRPHYKPRP	-0.874
RRIRGRPPRLPRPRPRPFFSPRP	0.125
RRIRGRPPRLPRPRPRPCLRPRP	0.459
RRIRPRPPRLPRPRPRPMMMPRP	-0.167
RRIRNRPPRLPRPRPRPQGHPRP	-0.296
RRIRTRPPRLPRPRPRPLIRPRP	-0.133
RRIRYRPPRLPRPRPRPNSRPRP	-0.156
RRIRWRPPRLPRPRPRPHQRPRP	-0.0218
RRIRARPPRLPRPRPRPFKFPRP	0.0771
RRIRNRPPRLPRPRPRPRAFPRP	0.0795
RRIRGRPPRLPRPRPRPIERPRP	-0.00587
RRIRWRPPRLPRPRPRPNKQPRP	0.103
RRIRRRPPRLPRPRPRPWYHPRP	-0.0689
RRIRNRPPRLPRPRPRPSSEPRP	-0.214
RRIRHRPPRLPRPRPRPHQNPRP	-0.494
RRIRWRPPRLPRPRPRPTAFPRP	0.276
RRIRDRPPRLPRPRPRPRMMPRP	0.312
RRIRNRPPRLPRPRPRPRCRPRP	0.104
RRIRFRPPRLPRPRPRPPAWPRP	0.354
RRIRPRPPRLPRPRPRPNNPPRP	-0.415
RRIRQRPPRLPRPRPRPDVQPRP	-0.0191
RRIRCRPPRLPRPRPRPYICPRP	-0.419

Sequence	shrunken log2 fold change
RRIRCRPPRLPRPRPRPFEQPRP	-0.669
RRIRHRPPRLPRPRPRPQKCPRP	-0.0302
RRIRTRPPRLPRPRPRPILDPRP	0.0371
RRIRTRPPRLPRPRPRPCCDPRP	-0.151
RRIRPRPPRLPRPRPRPDYDPRP	-0.252
RRIRFRPPRLPRPRPRPGEVPRP	0.185
RRIRERPPRLPRPRPRPDNYPRP	-0.0933
RRIRFRPPRLPRPRPRPWTDPRP	-0.345
RRIRMRPPRLPRPRPRPCMPPRP	-0.106
RRIRMRPPRLPRPRPRPFEMPRP	0.0316
RRIRTRPPRLPRPRPRPQFPPRP	-0.0282
RRIRIRPPRLPRPRPRPTDFPRP	-0.109
RRIRCRPPRLPRPRPRPPPTPRP	1.48
RRIRDRPPRLPRPRPRPNDKPRP	-0.555
RRIRDRPPRLPRPRPRPHVPPRP	-0.076
RRIRVRPPRLPRPRPRPCCYPRP	-0.272
RRIRIRPPRLPRPRPRPCPHPRP	-0.143
RRIRCRPPRLPRPRPRPYGYPRP	-0.0837
RRIRYRPPRLPRPRPRPEELPRP	-0.0326
RRIRERPPRLPRPRPRPVHAPRP	-0.0762
RRIRFRPPRLPRPRPRPHNAPRP	-0.54
RRIRGRPPRLPRPRPRPFGIPRP	-0.0144
RRIRARPPRLPRPRPRPCCLPRP	0.0817
RRIRIRPPRLPRPRPRPELDPRP	0.0332
RRIRTRPPRLPRPRPRPPIWPRP	0.477
